In paper PMC10873324, “High-throughput screening assay for PARP-HPF1 interaction inhibitors to affect DNA damage repair” (Scientific Reports, 2024):

T1: YFP-HPF1 (mCitrine fused to the N-terminus of full length HPF1) (UniProt Q9NWY4 1-346)
T1 construct: Histone PARylation Factor 1 (HPF1), full length; The methods print 'His6 tag- CFP-TEV protease site followed by full length HPF1' for the YFP-tagged HPF1; This is probably a slip for YFP, since the vector is pNIC-YFP; also called Histone PARylation Factor; source: E. coli BL21(DE3), purified (Ni-NTA IMAC, SEC); not shown: mCitrine (YFP), N-terminal, kept
T1 sequence (looked up): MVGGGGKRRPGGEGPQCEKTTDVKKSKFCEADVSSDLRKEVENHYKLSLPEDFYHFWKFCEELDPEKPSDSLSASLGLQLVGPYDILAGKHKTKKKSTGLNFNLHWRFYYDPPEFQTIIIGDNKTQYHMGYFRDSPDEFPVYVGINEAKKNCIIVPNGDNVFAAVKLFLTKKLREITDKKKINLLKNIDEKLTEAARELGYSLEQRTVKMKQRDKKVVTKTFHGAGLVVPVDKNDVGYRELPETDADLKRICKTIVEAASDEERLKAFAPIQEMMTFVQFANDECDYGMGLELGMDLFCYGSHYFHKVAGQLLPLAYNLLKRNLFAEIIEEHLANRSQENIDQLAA

B1: unlabeled HPF1 (full length) (natural protein, UniProt Q9NWY4 1-346, looked up)
chain: T1 sequence (looked up)
notes: Histone PARylation Factor 1 (HPF1), full length, without fluorescent protein; also called unlabelled full length HPF1; desalted unlabeled HPF1
B2: CFP-PARP2 (mCerulean fused to the N-terminus of the PARP2 ART domain) (domain or fragment, human, UniProt Q9UGN5-1 356-583, looked up)
chain: HPLDQHYRNLHCALRPLDHESYEFKVISQYLQSTHAPTHSDYTMTLLDLFEVEKDGEKEAFREDLHNRMLLWHGSRMSNWVGILSHGLRIAPPEAPITGYMFGKGIYFADMSSKSANYCFASRLKNTGLLLLSEVALGQCNELLEANPKAEGLLQGKHSTKGLGKMAPSSAHFVTLNGSTVPLGPASDTGILNPDGYTLNYNEYIVYNPNQVRMRYLLKVQFNFLQLW
notes: Construct order: His6 tag-CFP-TEV protease site-ART domain; source: E. coli BL21(DE3), purified (Ni-NTA IMAC, SEC); not shown: mCerulean (CFP), N-terminal, kept

Assays:
PARP2 [1] = molecular target: T2, PARP2 (Homo sapiens, UniProt Q9UGN5); assay: FRET PARP2-HPF1 interaction inhibition (olaparib present); nanoDSF shift of the PARP2 ART domain ([…] to […] °C), none for HPF1; type: binding; parameters: PARP2 ART domain (CFP-fused in FRET); with HPF1
PARP1 = molecular target: T3, PARP1 (Homo sapiens, UniProt P09874, DEL678-787); assay: biochemical; type: binding
T3 construct: PARP1 ART fragment [T661-F676 + GSGSGSGG + (D788-W1014)], CFP-fused; with HPF1

PARP1 ART (Homo sapiens) = PARP1 ART (Homo sapiens) (UniProt P09874); conditions: cited from earlier work
PARP2 [2] = molecular target: T2, PARP2; conditions: cited from earlier work
[3] = molecular target: B2; assay: FRET or BRET; competition of the FRET pair (CFP-PARP2, YFP-HPF1) with desalted (buffer-exchanged) unlabeled HPF1; rFRET read-out; HPF1 aggregated at high concentrations without salt; conditions: both partners purified
[4] = molecular target: B2; assay: FRET or BRET; competition of the FRET pair (400 nM CFP-PARP2, 800 nM YFP-HPF1) with increasing unlabeled HPF1 whose stock adds salt; rFRET read-out; apparent IC50; 20 µl, 384-well plates, 4 replicates; conditions: both partners purified
[5] = molecular target: T1, YFP-HPF1 (mCitrine fused to the …); assay: FRET or BRET; in solution; constant 400 nM CFP-PARP2 mixed with YFP-HPF1 250 nM to 10.5 µM, first mixed at high concentration in presence of Olaparib, salt backfilled; EmFRET by the method of Song et al.; 10 µl, 384-well plates, 4 replicates, 3 independent experiments; conditions: both partners purified

T3 sequence (P09874 788-1014, stated change not applied, other chains not shown): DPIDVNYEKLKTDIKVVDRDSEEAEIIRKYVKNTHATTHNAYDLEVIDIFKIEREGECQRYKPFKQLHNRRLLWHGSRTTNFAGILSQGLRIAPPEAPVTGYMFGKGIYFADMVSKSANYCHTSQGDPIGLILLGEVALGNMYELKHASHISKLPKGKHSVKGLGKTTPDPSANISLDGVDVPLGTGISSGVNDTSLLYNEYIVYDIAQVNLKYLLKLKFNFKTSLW
PARP1 ART (Homo sapiens), sequence (P09874 788-1014): as the sequence (P09874 788-1014, stated change not applied, other chains not shown) above

Molecule: CC(C)=CC[C@@H](OC(=O)C=C(C)C)C1=CC(=O)c2c(O)ccc(O)c2C1=O [Dimethylacrylshikonin]
- IC50 (PARP2 [1]): 15.7 µM
- IC50 (PARP1): 29.3 µM

Molecule: HPF1 (from UniProt Q9NWY4)
- Kd (PARP1 ART (Homo sapiens)): 1.5 µM
- Kd (PARP2 [2]): 3 µM

Molecule: CC(C)=CC[C@H](O)C1=CC(=O)c2c(O)ccc(O)c2C1=O [Alkannin]
- IC50 (PARP2 [1]): 21.2 µM
- IC50 (PARP1): 16.2 µM

Molecule: B1
- IC50 [3]: 24 µM
- IC50 [4]: 1.5 µM

Molecule: B2
- Kd [5]: 2 ± 0.18 µM
